From the array DNA melting data of Ke et al.

Assay: melting temperature; melt of duplexes
Details: sodium 0.0675 M; strand 1 µM

Substance	Tm
CGACGTGCCGAATGTGCTG+CAGCACATCCAGCACGTCG ((((((((.(.((((((((+)))))))).).))))))))	49.8 °C
CGACGTGCTCGATGTGCTG+CAGCACATACTGCACGTCG ((((((((...((((((((+))))))))...))))))))	49 °C
CGACGTGCGCTATGTGCTG+CAGCACATGTGGCACGTCG ((((((((...((((((((+))))))))...))))))))	50.8 °C
CGACGTGCTGAATGTGCTG+CAGCACATGTCGCACGTCG ((((((((...((((((((+))))))))...))))))))	52.1 °C
CGACGTGCGGAATGTGCTG+CAGCACATACGGCACGTCG ((((((((.(.((((((((+)))))))).).))))))))	53.3 °C
CGACGTGCGGAATGTGCTG+CAGCACATACTGCACGTCG ((((((((.(.((((((((+)))))))).).))))))))	54.3 °C
CGACGTGCCTGATGTGCTG+CAGCACATTGAGCACGTCG ((((((((...((((((((+))))))))...))))))))	51 °C
CGACGTGCGCCATGTGCTG+CAGCACATGGGGCACGTCG ((((((((.((((((((((+)))))))))).))))))))	63.2 °C
CGACGTGCTTCATGTGCTG+CAGCACATTATGCACGTCG ((((((((.(.((((((((+)))))))).).))))))))	50.1 °C
CGACGTGCACTATGTGCTG+CAGCACATCGAGCACGTCG ((((((((.(.((((((((+)))))))).).))))))))	46.7 °C
CGACGTGCGAGATGTGCTG+CAGCACATGCCGCACGTCG (((((((((..((((((((+))))))))..)))))))))	55.4 °C
CGACGTGCACCATGTGCTG+CAGCACATGCCGCACGTCG ((((((((..(((((((((+)))))))))..))))))))	48.6 °C
CGACGTGCGAGATGTGCTG+CAGCACATGTCGCACGTCG ((((((((((.((((((((+)))))))).))))))))))	60.6 °C
CGACGTGCCCTATGTGCTG+CAGCACATCTGGCACGTCG (((((((((..((((((((+))))))))..)))))))))	53.2 °C
CGACGTGCAACATGTGCTG+CAGCACATAGGGCACGTCG ((((((((...((((((((+))))))))...))))))))	49.1 °C
CGACGTGCCATATGTGCTG+CAGCACATAGCGCACGTCG ((((((((..(((((((((+)))))))))..))))))))	50 °C
CGACGTGCACGATGTGCTG+CAGCACATCAAGCACGTCG ((((((((..(((((((((+)))))))))..))))))))	51.2 °C
CGACGTGCACTATGTGCTG+CAGCACATTTCGCACGTCG ((((((((...((((((((+))))))))...))))))))	43.1 °C
CGACGTGCCGAATGTGCTG+CAGCACATTGTGCACGTCG ((((((((..(((((((((+)))))))))..))))))))	50.1 °C
CGACGTGCCCTATGTGCTG+CAGCACATGGGGCACGTCG ((((((((((.((((((((+)))))))).))))))))))	61.4 °C
CGACGTGCCCAATGTGCTG+CAGCACATCGTGCACGTCG ((((((((.(.((((((((+)))))))).).))))))))	45.8 °C
CGACGTGCAGGATGTGCTG+CAGCACATATGGCACGTCG ((((((((...((((((((+))))))))...))))))))	51.3 °C
CGACGTGCTAGATGTGCTG+CAGCACATTGTGCACGTCG ((((((((...((((((((+))))))))...))))))))	48.5 °C
CGACGTGCCCCATGTGCTG+CAGCACATGTAGCACGTCG ((((((((..(((((((((+)))))))))..))))))))	51.9 °C
CGACGTGCCACATGTGCTG+CAGCACATCTTGCACGTCG ((((((((.(.((((((((+)))))))).).))))))))	47.5 °C
CGACGTGCTGTATGTGCTG+CAGCACATGGCGCACGTCG ((((((((...((((((((+))))))))...))))))))	48.9 °C

Substance	Tm
CGACGTGCCGAATGTGCTG+CAGCACATAGGGCACGTCG (((((((((..((((((((+))))))))..)))))))))	54.4 °C
CGACGTGCCGTATGTGCTG+CAGCACATTAGGCACGTCG (((((((((..((((((((+))))))))..)))))))))	57.1 °C
CGACGTGCGGGATGTGCTG+CAGCACATACAGCACGTCG ((((((((.(.((((((((+)))))))).).))))))))	56.5 °C
CGACGTGCCGAATGTGCTG+CAGCACATGCAGCACGTCG ((((((((.(.((((((((+)))))))).).))))))))	52.6 °C
CGACGTGCCTCATGTGCTG+CAGCACATCAAGCACGTCG ((((((((.(.((((((((+)))))))).).))))))))	47.9 °C
CGACGTGCCGCATGTGCTG+CAGCACATTAGGCACGTCG (((((((((..((((((((+))))))))..)))))))))	55.3 °C
CGACGTGCGCTATGTGCTG+CAGCACATCTAGCACGTCG ((((((((...((((((((+))))))))...))))))))	50.4 °C
CGACGTGCGATATGTGCTG+CAGCACATAGAGCACGTCG ((((((((..(((((((((+)))))))))..))))))))	58.5 °C
CGACGTGCGCAATGTGCTG+CAGCACATGACGCACGTCG (((((((((..((((((((+))))))))..)))))))))	54.4 °C
CGACGTGCCTTATGTGCTG+CAGCACATCGGGCACGTCG (((((((((..((((((((+))))))))..)))))))))	53.1 °C
CGACGTGCCATATGTGCTG+CAGCACATAGTGCACGTCG ((((((((..(((((((((+)))))))))..))))))))	47.1 °C
CGACGTGCACGATGTGCTG+CAGCACATCACGCACGTCG ((((((((..(((((((((+)))))))))..))))))))	51.9 °C
CGACGTGCCAGATGTGCTG+CAGCACATGGCGCACGTCG ((((((((...((((((((+))))))))...))))))))	50.4 °C
CGACGTGCGCGATGTGCTG+CAGCACATCAAGCACGTCG ((((((((..(((((((((+)))))))))..))))))))	59 °C
CGACGTGCATGATGTGCTG+CAGCACATACCGCACGTCG ((((((((...((((((((+))))))))...))))))))	47.5 °C
CGACGTGCGTTATGTGCTG+CAGCACATTACGCACGTCG ((((((((((.((((((((+)))))))).))))))))))	58.6 °C
CGACGTGCTGGATGTGCTG+CAGCACATTGGGCACGTCG ((((((((...((((((((+))))))))...))))))))	52 °C
CGACGTGCATGATGTGCTG+CAGCACATTTGGCACGTCG ((((((((...((((((((+))))))))...))))))))	50.3 °C
CGACGTGCAAAATGTGCTG+CAGCACATGACGCACGTCG ((((((((...((((((((+))))))))...))))))))	51.4 °C
CGACGTGCGACATGTGCTG+CAGCACATCGAGCACGTCG ((((((((...((((((((+))))))))...))))))))	54.8 °C
CGACGTGCAAAATGTGCTG+CAGCACATTTGGCACGTCG ((((((((.((((((((((+)))))))))).))))))))	57.6 °C
CGACGTGCGCGATGTGCTG+CAGCACATGGGGCACGTCG ((((((((.(.((((((((+)))))))).).))))))))	55.6 °C
CGACGTGCACGATGTGCTG+CAGCACATTAAGCACGTCG ((((((((...((((((((+))))))))...))))))))	46.5 °C
CGACGTGCAATATGTGCTG+CAGCACATAAGGCACGTCG ((((((((..(((((((((+)))))))))..))))))))	51.9 °C
CGACGTGCCAGATGTGCTG+CAGCACATGAGGCACGTCG (((((((((..((((((((+))))))))..)))))))))	55.4 °C
CGACGTGCCTAATGTGCTG+CAGCACATCCAGCACGTCG ((((((((...((((((((+))))))))...))))))))	48.7 °C
